# Measured values taken from the RNAGym collection of RNA variant scans (doi:10.1073/pnas.2313332121).
# Fewer inactive variants are shown than the library holds.
# B1: TPR 5TU (parent)
# chain: GGAUCUUCUCGAUCUAACAAAAAAGACAAAUCUGCCACAAAGCUUGAGAGCAUCUUCGGAUGCAGAGGCGGCAGCCUUCGGUGGCGCGAUAGCGCCAACGUUCUCAACUAUGACACGCAAAACGCGUGCUCCGUUGAAUGGAGUUUAUCAUG
# Variants of: B1
# Assay: polymerase ribozyme fitness, log enrichment relative to wild type (log ratio); higher = more active; in vitro selection for triplet polymerase activity
# Outline: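 For each subunit of a heterodimeric triplet polymerase ribozyme, a mutant library was built by PCR and transcribed, then taken through a single in vitro selection round in triplicate. Selection involved annealing to a biotinylated primer, the partner subunit and triplets, incubation frozen at −7 °C, gel excision of extended constructs, capture on streptavidin beads and RT-PCR. Genotypes were retained after Illumina sequencing of inputs and outputs only with ≥10 input reads and ≥1 read in each output. Fitness is defined as the logarithm of a genotype's enrichment relative to wild-type enrichment, using inverse-variance-weighted averages across replicates, with the logarithm taken to base 2.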
row,Variant,polymerase ribozyme fitness (log ratio)
1,U61A A147U,-0.329
2,U61A A73G G80U,≤ -4.2
3,A60G A115G U144C U146A A150U,-3.85
4,U61A G80A,-2.08
5,U61G U77G G92A C96A G143U,≤ -4.2
6,A60U C79U G81U A91G C95G U102A,≤ -4.2
7,A60U A150C,-3.39
8,U61G C93G C99G C123G C125G,≤ -4.2
9,A60U A91U C96A C103A A115U,≤ -4.2
10,A60G G70C A89C,-3.24
11,U61A G94A,-2.08
12,G62C C63A C116G,-1.77
13,A60C C76U,-3.17
14,U61A G140A,≤ -4.2
15,U61A U78A C95U C123A U146A,≤ -4.2
16,A60U G84A C116U,-1.05
17,U61A G86A A97U C99G A113U G152U,≤ -4.2
18,U61A U90C C96A A115U G152U,≤ -4.2
19,U61A C125U,-1.86
20,U61A C125A,-2.73
21,A60C A73G C96U U101G,-3.45

row,Variant,polymerase ribozyme fitness (log ratio)
1,A60C C105G,-3.44
2,G59U U139C,-3.8
3,A60C A89C G94A,-1.69
4,A60C C63U U77C G128U A150G G152A,≤ -4.2
5,U61G A66C G133C,≤ -4.2
6,A60C A91U C118A,≤ -4.2
7,A60G G71A G141U,≤ -4.2
8,U61A A64G G140C U144C,≤ -4.2
9,G62U A73U,-3.59
10,U61G G94A A106C C116A G133C U146A,≤ -4.2
11,U61A C118A,-2
12,U61G C99G A138G,≤ -4.2
13,G62A G117A U134C A150G,≤ -4.2
14,G62C C63U C79A C85U A98U C99U C131A U135C U144A,≤ -4.2
15,G59U G68A U78C C93G G124A C131G G141U,≤ -4.2
16,G62U C96U,-1.14
17,U61C G80C C85U C99U U146A,≤ -4.2
18,A60U U77A,≤ -4.2
19,U61G G83U G86A C149U,≤ -4.2
20,A60C C85A C116A,-1.6
21,A60G A107U,-3.1

row,Variant,polymerase ribozyme fitness (log ratio)
1,A60C A73G C93U,≤ -4.2
2,A60C C87A A98U,≤ -4.2
3,A60G C116U,0.141
4,U61A G83C,-3.05
5,G59U U148C,-1.18
6,G59U U148G,-3.83
7,U61C G126A,-0.237
8,U61A A91U,≤ -4.2
9,G62C C85A C99G U151G,≤ -4.2
10,U61C G94A G141A C149A,≤ -4.2
11,G62U G86C C95G C132U,≤ -4.2
12,G59U G86A A147U,-0.0426
13,U61G C76G C123U,≤ -4.2
14,A60G C75G G81C G94U C103A A107U U111G,≤ -4.2
15,A60U A89C,-0.611
16,G59U C93U C114G,-3.92
17,G62A C87U A120G A142C,-3.11
18,A60G C85G G94A,-0.0985
19,A60G U61A A97G,-1.38
20,A60C C76U G88U C116G U135G A142G U148G,≤ -4.2
21,U61A U101G,-1.11

row,Variant,polymerase ribozyme fitness (log ratio)
1,U61G C93U,-1.89
2,U61G C93A,-4.13
3,A60G C123U G124A C131A,-2.39
4,G59U C96U A142G,-1.66
5,G59U C69G,-1.07
6,U61G G74U G83A,≤ -4.2
7,A60G U78A A106G C118U,≤ -4.2
8,A60C C93U,-2.64
9,A60C C93A,-3.64
10,G59U G67C G136A,≤ -4.2
11,A60G G126A,1.03
12,G62U A115C,-1.97
13,U61G C85A G141A,-1.58
14,U61A A73C,-3.91
15,U61A A73G,-1.42
16,A60G G70A C108G,≤ -4.2
17,U61A C95U,-0.916
18,G62C C95U C96A,-3.59
19,G59U C75A C96G,≤ -4.2
20,A60G U61G G81C A122C A142U,-3.02
21,A60G C79G,-3.75
